10 molecules from patent publication US20250043026A1 (SHANGHAI BAO PHARMACEUTICALS, published 2025) can be followed below.

For orientation: kon means a measure of how fast the partners come together. A lower kon goes with slow association. Broadly, the Kd is the equilibrium constant for the complex coming apart.

The target of one assay is FcRn (Acro Biosystems) (human, UniProt P55899 24-297; P61769 21-119). Description: BLI (Fortebio), FcRn loaded on HIS1K probe, pH 7.0. As to the method:
The variant proteins were tested for affinity to FcRn at pH 7.0. The affinity of the antibody fragment for the receptor was determined using Fortebio. FcRn (Acro Biosystems) was loaded at 0.8 nm with an HIS1K probe, bound to the variant protein at various concentrations for 60 seconds and dissociated for 300 seconds.
Background: In BLI a coated tip is dipped into the sample, and binding shifts an interference pattern.

The target in assay [1] is T1, FcγRI (Acro Biosystems) (UniProt P12314 16-288, limits assumed).
T1 construct: also called CD64
T1 sequence (P12314 16-288 limits assumed): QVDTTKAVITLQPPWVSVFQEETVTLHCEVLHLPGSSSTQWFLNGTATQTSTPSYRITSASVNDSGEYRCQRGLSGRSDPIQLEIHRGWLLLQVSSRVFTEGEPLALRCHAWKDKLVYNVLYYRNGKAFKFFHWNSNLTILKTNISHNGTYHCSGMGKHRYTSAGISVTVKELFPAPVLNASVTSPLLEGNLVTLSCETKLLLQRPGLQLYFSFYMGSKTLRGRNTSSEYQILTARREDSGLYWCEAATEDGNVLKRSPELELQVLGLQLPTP
Description: BLI (Fortebio), FcγR loaded on HIS1K probe, pH 7.0. As to the method:
(§1) The variant proteins were tested for affinity to FcγRI, FcγRIIa-131H, FcγRIIa-131R, FcγRIIb, FcγRIIIa-158F, FcγRIIIa-158V at pH 7.0. The affinity of the antibody fragment for the receptor was determined using Fortebio. Different FcγR (Acro Biosystems) was loaded at 0.5 nm with an HIS1K probe, bound to the variant protein at various concentrations for 60 seconds and dissociated for 60 seconds.

The target of assay [2] is T2, FcγRIIIa-158F (Acro Biosystems) (UniProt P08637 17-208).
T2 construct: The 158V/F allotypes are those of the human receptor
T2 sequence (P08637 17-208 limits assumed): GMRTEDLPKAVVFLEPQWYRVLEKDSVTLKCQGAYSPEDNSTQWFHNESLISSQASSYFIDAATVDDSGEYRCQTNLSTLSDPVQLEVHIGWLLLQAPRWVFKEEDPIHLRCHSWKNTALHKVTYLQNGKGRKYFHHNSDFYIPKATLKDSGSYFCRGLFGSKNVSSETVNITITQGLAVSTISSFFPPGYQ
Description: BLI (Fortebio), FcγR loaded on HIS1K probe, pH 7.0. As to the method: as §1

The target of assay [3] is T3, FcγRIIa-131R (Acro Biosystems) (UniProt P12318 36-218, limits assumed).
T3 construct: The 131H/R allotypes are those of the human receptor
T3 sequence (looked up): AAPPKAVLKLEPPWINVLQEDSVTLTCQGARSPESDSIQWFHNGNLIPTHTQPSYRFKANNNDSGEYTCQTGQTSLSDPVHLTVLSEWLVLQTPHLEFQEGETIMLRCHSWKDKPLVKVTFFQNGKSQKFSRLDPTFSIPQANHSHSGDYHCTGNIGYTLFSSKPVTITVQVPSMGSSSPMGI
Description: BLI (Fortebio), FcγR loaded on HIS1K probe, pH 7.0. As to the method:
as §1

Assay [4] has as its target T4, FcγRIIa-131H (Acro Biosystems) (UniProt P12318 36-218, limits assumed).
T4 construct: The 131H/R allotypes are those of the human receptor
T4 sequence (looked up): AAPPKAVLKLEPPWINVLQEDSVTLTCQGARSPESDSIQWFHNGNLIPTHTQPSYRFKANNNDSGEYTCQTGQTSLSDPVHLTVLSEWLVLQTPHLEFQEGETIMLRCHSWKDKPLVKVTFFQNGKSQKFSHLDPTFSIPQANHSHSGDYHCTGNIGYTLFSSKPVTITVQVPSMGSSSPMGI
Description: BLI (Fortebio), FcγR loaded on HIS1K probe, pH 7.0. As to the method: as §1

For assay [5], the target named is T5, FcγRIIb (Acro Biosystems) (UniProt P31994 46-217, limits assumed).
T5 sequence (looked up): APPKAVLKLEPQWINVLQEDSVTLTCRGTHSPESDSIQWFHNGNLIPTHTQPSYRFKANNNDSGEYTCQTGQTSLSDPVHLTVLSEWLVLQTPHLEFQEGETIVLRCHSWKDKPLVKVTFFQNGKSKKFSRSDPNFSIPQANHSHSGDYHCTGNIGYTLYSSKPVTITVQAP
Description: BLI (Fortebio), FcγR loaded on HIS1K probe, pH 7.0. As for the experimental part:
as §1

The target of assay [6] is T6, FcγRIIIa-158V (Acro Biosystems) (UniProt P08637 17-208).
T6 construct: The 158V/F allotypes are those of the human receptor
T6 sequence (P08637 17-208 F176V limits assumed): as the sequence (P08637 17-208 limits assumed) above, with F160V counted along it
Description: BLI (Fortebio), FcγR loaded on HIS1K probe, pH 7.0. As to the method: as §1

Assay [7] has as its target T1, FcγRI (Acro Biosystems). Description: BLI (Fortebio), ratio of KD against m1. As for the experimental part: as §1
The target in assay [8] is T2, FcγRIIIa-158F (Acro Biosystems). Description: BLI (Fortebio), ratio of KD against m1. As to the method: as §1
Assay [9] concerns the target T3, FcγRIIa-131R (Acro Biosystems). Description: BLI (Fortebio), ratio of KD against m1. As to the method: as §1
Assay [10] has as its target T4, FcγRIIa-131H (Acro Biosystems). Description: BLI (Fortebio), ratio of KD against m1. As to the method:
as §1

Assay [11] addresses T5, FcγRIIb (Acro Biosystems). Description: BLI (Fortebio), ratio of KD against m1. As to the method:
as §1

Assay [12] concerns the target T6, FcγRIIIa-158V (Acro Biosystems). Description: BLI (Fortebio), ratio of KD against m1. As to the method: as §1

Sequence of FcRn (Acro Biosystems) (P55899 24-297 limits assumed, chain 1 of 2): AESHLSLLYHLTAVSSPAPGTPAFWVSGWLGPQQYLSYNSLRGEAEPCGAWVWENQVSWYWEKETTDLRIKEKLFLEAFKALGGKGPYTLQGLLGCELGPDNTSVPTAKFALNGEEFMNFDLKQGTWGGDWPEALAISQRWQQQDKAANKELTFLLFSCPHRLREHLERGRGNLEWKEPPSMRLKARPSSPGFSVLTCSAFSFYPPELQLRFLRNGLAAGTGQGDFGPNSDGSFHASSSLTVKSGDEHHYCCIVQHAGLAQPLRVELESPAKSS
Sequence of FcRn (Acro Biosystems) (P61769 21-119 limits assumed, chain 2 of 2): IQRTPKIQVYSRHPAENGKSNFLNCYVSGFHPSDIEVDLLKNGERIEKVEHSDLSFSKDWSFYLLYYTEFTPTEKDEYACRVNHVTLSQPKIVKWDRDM

B1: Fc variant m5 (other)
chain: DKTHTCPPCPAPELLGGPSVFLFPPKPKDTLYITREPEVTCVVVDVSHEDPEVKFNWYVDGVEVHNAKTKPREQYNSTYRVVSVLTVLHQDWLNGKEYKCKVSNKALPAPIEKTISKAKGQPREPQVYTLPPSRDELTKNQVSLTCLVKGFYPSDIAVEWESNGQPENNYKTTPPVLDSDGSFFLYSKLTVDKSRWQQGNVFSCSVMHEALKFHYTQKSLSLSP
modifications: N-glycan with 2,6-sialic acid (variant co-expressed with human GT and ST in ExpiCHO-S cells)
notes: Fc fragment variant of IgG1
In the assay with FcRn (Acro Biosystems), B1 came in with a kon of 347000 M⁻¹ s⁻¹.

B2: Fc variant m1 (other)
chain: DKTHTCPPCPAPELLGGPSVFLFPPKPKDTLYITREPEVTCVVVDVSHEDPEVKFNWYVDGVEVHNAKTKPREEQYNSTYRVVSVLTVLHQDWLNGKEYKCKVSNKALPAPIEKTISKAKGQPREPQVYTLPPSRDELTKNQVSLTCLVKGFYPSDIAVEWESNGQPENNYKTTPPVLDSDGSFFLYSKLTVDKSRWQQGNVFSCSVMHEALKFHYTQKSLSLSP
modifications: N-glycan with 2,6-sialic acid (variant co-expressed with human GT and ST in ExpiCHO-S cells)
notes: also called control m1
Molecule B2 registered a kon in the assay with FcRn (Acro Biosystems) of 214000 M⁻¹ s⁻¹. The Kd with FcγRI (Acro Biosystems) [1] came out at 0.316 µM; in [2], 7.21 µM; in assay [3] it was 2.05 µM; in assay [4] it was 2.56 µM; in [5] it was 10.7 µM; in assay [6], 1.71 µM.

B3: Fc variant m6 (other)
chain: DKTHTCPPCPAPELLGGPSVFLFPPKPKDTLYITREPEVTCVVADVSHEDPEVKFNWYVDGVEVHNAKTKPREEQYNSTYRVVSVLTVLHQDWLNGKEYKCKVSNKALPAPIEKTISKAKGQPREPQVYTLPPSRDELTKNQVSLTCLVKGFYPSDIAVEWESNGQPENNYKTTPPVLDSDGSFFLYSKLTVDKSRWQQGNVFSCSVMHEALKFHYTQKSLSLSP
modifications: N-glycan with 2,6-sialic acid (variant co-expressed with human GT and ST in ExpiCHO-S cells)
notes: Fc fragment variant of IgG1
Consider B3, for which the “Fold change of m6 relative to m1” value with FcγRI (Acro Biosystems) [7] worked out at 0.99 fold; in assay [8] it was 0.75 fold; in [9], 1.46 fold; in assay [10], 1 fold; in [11], 1.57 fold; in assay [12], 0.97 fold. In the assay with FcRn (Acro Biosystems), this molecule displayed a kon of 212000 M⁻¹ s⁻¹. Further, the Kd with FcγRI (Acro Biosystems) [1] was found to be 0.319 µM; in assay [2], 9.67 µM; in assay [3], 1.4 µM; in assay [4], 2.56 µM; in [5] it was 6.82 µM; in assay [6] it was 1.76 µM.

B4: Fc variant m3 (other)
chain: DKTHTCPPCPAPELLGGPSVALFPPKPKDTLYITREPEVTCVVVDVSHEDPEVKFNWYVDGVEVHNAKTKPREEQYNSTYRVVSVLTVLHQDWLNGKEYKCKVSNKALPAPIEKTISKAKGQPREPQVYTLPPSRDELTKNQVSLTCLVKGFYPSDIAVEWESNGQPENNYKTTPPVLDSDGSFFLYSKLTVDKSRWQQGNVFSCSVMHEALKFHYTQKSLSLSP
modifications: N-glycan with 2,6-sialic acid (variant co-expressed with human GT and ST in ExpiCHO-S cells)
notes: Fc fragment variant of IgG1
The molecule B4 returned a kon in the assay with FcRn (Acro Biosystems) of 272000 M⁻¹ s⁻¹.

B5: Fc variant m11 (other)
chain: DKTHTCPPCPAPELLGGPSVFLFPPKPKDTLYITREPEVTCVVVDVSHEDPEVKFNWYVDGVEVHNAKTKPREEQYNSTARVVSVLTVLHQDWLNGKEYKCKVSNKALPAPIEKTISKAKGQPREPQVYTLPPSRDELTKNQVSLTCLVKGFYPSDIAVEWESNGQPENNYKTTPPVLDSDGSFFLYSKLTVDKSRWQQGNVFSCSVMHEALKFHYTQKSLSLSP
modifications: N-glycan with 2,6-sialic acid (variant co-expressed with human GT and ST in ExpiCHO-S cells)
notes: Fc fragment variant of IgG1
In turn, B5 displayed a kon in the assay with FcRn (Acro Biosystems) of 38300 M⁻¹ s⁻¹.

B6: Fc variant m7 (other)
chain: DKTHTCPPCPAPELLGGPSVFLFPPKPKDTLYITREPEVTCVVEDVSHEDPEVKFNWYVDGVEVHNAKTKPREEQYNSTYRVVSVLTVLHQDWLNGKEYKCKVSNKALPAPIEKTISKAKGQPREPQVYTLPPSRDELTKNQVSLTCLVKGFYPSDIAVEWESNGQPENNYKTTPPVLDSDGSFFLYSKLTVDKSRWQQGNVFSCSVMHEALKFHYTQKSLSLSP
modifications: N-glycan with 2,6-sialic acid (variant co-expressed with human GT and ST in ExpiCHO-S cells)
notes: Fc fragment variant of IgG1
As for B6, in the assay with FcγRI (Acro Biosystems) [7], the “Fold change of m7 relative to m1” value is 4.95 fold. In the assay with FcRn (Acro Biosystems), this molecule gave a kon of 221000 M⁻¹ s⁻¹. In the assay with FcγRI (Acro Biosystems) [1], the Kd amounted to 0.0638 µM.

B7: Fc variant m10 (other)
chain: DKTHTCPPCPAPELLGGPSVFLFPPKPKDTLYITREPEVTCVVVDVSHEDPEVKFNWYVDGVEVHNAKTKPREEQYNNASRVVSVLTVLHQDWLNGKEYKCKVSNKALPAPIEKTISKAKGQPREPQVYTLPPSRDELTKNQVSLTCLVKGFYPSDIAVEWESNGQPENNYKTTPPVLDSDGSFFLYSKLTVDKSRWQQGNVFSCSVMHEALKFHYTQKSLSLSP
notes: Fc fragment variant of IgG1, co-expressed with human GT and ST
With B7, the kon in the assay with FcRn (Acro Biosystems) was found to be 221000 M⁻¹ s⁻¹.

B8: Fc variant m8 (other)
chain: DKTHTCPPCPAPELLGGPSVFLFPPKPKDTLYITREPEVTCVVVDVSHEDPEVKFNWYVDGVEVHNAKTKPREEQANSTYRVVSVLTVLHQDWLNGKEYKCKVSNKALPAPIEKTISKAKGQPREPQVYTLPPSRDELTKNQVSLTCLVKGFYPSDIAVEWESNGQPENNYKTTPPVLDSDGSFFLYSKLTVDKSRWQQGNVFSCSVMHEALKFHYTQKSLSLSP
notes: as for B7
B8 registered a kon with FcRn (Acro Biosystems) of 115000 M⁻¹ s⁻¹.

B9: Fc variant m4 (other)
chain: DKTHTCPPCPAPELLGGPSVFLAPPKPKDTLYITREPEVTCVVVDVSHEDPEVKFNWYVDGVEVHNAKTKPREEQYNSTYRVVSVLTVLHQDWLNGKEYKCKVSNKALPAPIEKTISKAKGQPREPQVYTLPPSRDELTKNQVSLTCLVKGFYPSDIAVEWESNGQPENNYKTTPPVLDSDGSFFLYSKLTVDKSRWQQGNVFSCSVMHEALKFHYTQKSLSLSP
modifications: N-glycan with 2,6-sialic acid (variant co-expressed with human GT and ST in ExpiCHO-S cells)
notes: Fc fragment variant of IgG1
Take B9: the kon with FcRn (Acro Biosystems) was determined as 298000 M⁻¹ s⁻¹.

B10: Fc variant m9 (other)
chain: DKTHTCPPCPAPELLGGPSVFLFPPKPKDTLYITREPEVTCVVVDVSHEDPEVKFNWYVDGVEVHNAKTKPREEQNASTYRVVSVLTVLHQDWLNGKEYKCKVSNKALPAPIEKTISKAKGQPREPQVYTLPPSRDELTKNQVSLTCLVKGFYPSDIAVEWESNGQPENNYKTTPPVLDSDGSFFLYSKLTVDKSRWQQGNVFSCSVMHEALKFHYTQKSLSLSP
notes: as for B7
In the assay with FcRn (Acro Biosystems), B10 displayed a kon of 208000 M⁻¹ s⁻¹.
